The values that follow come from paper PMC6484772, “S100A3 a partner protein regulating the stability/activity of RARα and PML-RARα in cellular models of breast/lung cancer and acute myeloid leukemia” (Oncogene, 2018).

This test addresses T1, GST-RARα (UniProt P10276 1-462).
T1 construct: full-length RARα; also called GST-tagged full-length RARα; source: GST-tagged recombinant protein
T1 sequence (looked up): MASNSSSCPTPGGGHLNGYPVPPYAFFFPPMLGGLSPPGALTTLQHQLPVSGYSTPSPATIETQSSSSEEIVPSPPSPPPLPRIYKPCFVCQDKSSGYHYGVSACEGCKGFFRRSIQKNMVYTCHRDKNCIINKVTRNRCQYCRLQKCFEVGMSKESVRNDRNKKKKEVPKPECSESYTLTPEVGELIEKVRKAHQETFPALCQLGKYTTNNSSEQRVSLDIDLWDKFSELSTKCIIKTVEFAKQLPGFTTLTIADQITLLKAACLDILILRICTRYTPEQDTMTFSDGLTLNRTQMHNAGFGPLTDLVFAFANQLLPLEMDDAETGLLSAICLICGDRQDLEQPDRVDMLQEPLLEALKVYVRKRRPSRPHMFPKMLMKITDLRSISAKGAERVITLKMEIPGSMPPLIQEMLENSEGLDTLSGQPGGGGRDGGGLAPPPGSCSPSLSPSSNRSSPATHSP
Kind of test: far-Western, overlay or dot blot; S100A3 immunoprecipitated from extracts of transfected COS-7 cells with anti-S100A3 beads, resolved and blotted; probed with GST-tagged RARα recombinant proteins; developed with an anti-GST antibody. As to conditions: both partners purified.

B1: S100A3 (over-expressed in COS-7) (natural protein, human, UniProt P33764 1-101, looked up)
chain: MARPLEQAVAAIVCTFQEYAGRCGDKYKLCQAELKELLQKELATWTPTEFRECDYNKFMSVLDTNKDCEVDFVEYVRSLACLCLYCHEYFKDCPSEPPCSQ
notes: protein S100-A3; source: COS-7, transiently transfected (pcDNA3 expression plasmid for the S100A3 cDNA), in cell extract; immunoprecipitated with anti-S100A3 for the far-western
Turning to B1, the binding result was “binds”.
